Values quoted from earlier work, collected in PMC10379010, “Short Peptides of Innate Immunity Protein Tag7 (PGLYRP1) Selectively Induce Inhibition or Activation of Tumor Cell Death via TNF Receptor” (International Journal of Molecular Sciences, 2023).

Test system: TNFR1
Design: method as in 3 sources, ref [14] = [14]; PMID 32093269; doi:10.3390/cells9020488; 14. Romanova E.A. Sharapova T.N. Telegin G.B. Minakov A.N. Chernov A.S. Ivanova O.K. Bychkov M.L. Sashchenko L.P. Yashin D.V. A 12-mer Peptide of Tag7 (PGLYRP1) Forms a Cytotoxic Complex with Hsp70 an ||| ref [15] = [15]; PMID 34163464; doi:10.3389/fimmu.2021.622471; 15. Telegin G.B. Chernov A.S. Kazakov V.A. Romanova E.A. Sharapova T.N. Yashin D.V. Gabibov A.G. Sashchenko L.P. A 8-mer Peptide of PGLYRP1/Tag7 Innate Immunity Protein Binds to TNFR1 Receptor and Inh ||| ref [10],[11] = [10]; PMID 26183779; doi:10.1074/jbc.M115.639732; 10. Yashin D.V. Ivanova O.K. Soshnikova N.V. Sheludchenkov A.A. Romanova E.A. Dukhanina E.A. Tonevitsky A.G. Gnuchev N.V. Gabibov A.G. Georgiev G.P. Tag7 (PGLYRP1) in Complex with Hsp70 Induces Altern || [11]; PMID 32636466; doi:10.1038/s41598-020-68088-x; 11. Sharapova T.N. Romanova E.A. Soshnikova N.V. Belogurov A.A. Jr. Lomakin Y.A. Sashchenko L.P. Yashin D.V. Autoantibodies from SLE patients induce programmed cell death in murine fibroblast cells th
Details: death under action of a specific ligand of TNFR1 or DNA-hydrolyzing autoantibodies; ref [10],[11]

B1: Tag7: innate immunity protein Tag7 (PGLYRP1), ligand of the TNFR1 receptor; recombinant (protein)
chain: QETEDPACCSPIVPRNEWKALASECAQHLSLPLRYVVVSHTAGSSCNTPASCQQQARNVQHYHMKTLGWCDVGYNFLIGEDGLVYEGRGWNFTGAHSGHLWNPMSIGISFMGNYMDRVPTPQAIRAAQGLLACGVAQGALRSNYVLKGHRDVQRTLSPGNQLYHLIQNWPHYRSP
**Q.** With B1 as the molecule, how does the “Inhibition of death of tumor cells, Tag7” value read?
**A.** inhibits the death of tumor cells
